In the DeepSol protein solubility set:

test: soluble on expression in E. coli; label from the status in PepcDB or PDB records

Soluble on expression in E. coli, soluble:
GAMAGSIRSKLSAIDVRQLGTVDYRTAWQLQRELADARVAGGADTLLLLEHPAVYTAGRRTETHERPIDGTPVVDTDRGGKITWHGPGQLVGYPIIGLAEPLDVVNYVRRLEESLIQVCADLGLHAGRVDGRSGVWLPGRPARKVAAIGVRVSRATTLHGFALNCDCDLAAFTAIVPCGISDAAVTSLSAELGRTVTVDEVRATVAAAVCAALDGVLPVGDRVPSHAVPSPL
AIAHAASFRDCKAWQSDGLPLSSSSNEACKLYDAILSQYVTWRNDETLGGIEGCITSIKAADPDFVMGHVISTGLELVGTGSSVLRDERLASAVRRTVELADTQQLTSREKNHVKAVQLFSKGSVHRNLTFMFNG
MSLYKIDFSKGLVPAILQDNQTKQVLMLGYMNQEAFDKTIEDGVVCFYSRSKQRLWTKGETSGHTQLVKDIHVDCDNDTILIDVIPNGPTCHTGSQSCFNTEVPFSVQTLAQTVQDSAQSNNEKSYTKYLLTEGIEKITKKYGEEAFEVVIEAIKGDKKAFVSEVADELYHLFVLMHALGVDFSEIEAELARRHHKRNNFKGERQNIEQWEGHHHHHH
MSASKILSQKIKVALVQLSGSSPDKMANLQRAATFIERAMKEQPDTKLVVLPECFNSPYSTDQFRKYSEVINPKEPSTSVQFLSNLANKFKIILVGGTIPELDPKTDKIYNTSIIFNEDGKLIDKHRKVHLFDVDIPNGISFHESETLSPGEKSTTIDTKYGKFGVGICYDMRFPELAMLSARKGAFAMIYPSAFNTVTGPLHWHLLARSRAVDNQVYVMLCSPARNLQSSYHAYGHSIVVDPRGKIVAEAGEGEEIIYAELDPEVIESFRQAVPLTKQRRFDVYSDVNAH

Soluble on expression in E. coli, not soluble:
VINARLGKKDEINVCKLKISAWDEEEAVCIMSISEERMFILKMLEEGKITSEEAARLLEAIDPDKGTADSGSGFKAQQRKTNFADEVSKVRDKLNEWKKEFKKNYNQKDFERAVDEFSSKVEKLGKNLAYTTIGVADKLVDFISSFVETNSFNVFGKYKATNRVFEVPDVNEDMELNIEAINGHILVKKHMENKVIIRTTVKSPADNADEILDFSREENKVTLKCNKIGNISVSHEIFLPSVKVKNISLVTKNGKVYVEDSISENFEAVTSNSNVDLMGVNGDKINVSNKNGRINFGYIIGKDINIDAVNSVIEIRQIKTTNINASTRNGRIFIENVHNHNDDPNINMNLKTSSADIKVNMNDMEKRGYKIKAQTTHAEINLLIPEMTYRNISKQMSSNFVEADSDGYDDYINKVNIVAETTNGNIEIVK
MGSDKIHHHHHHMGIRILNDLMLDKSALLFGVSKYLEKGIITGNILIHKSLLAELEKESNDGLVSAEIALDEVKKLKDITERILVNFEIVGENSKKGEANELSREYCLEKGCIMVTADETQKKICDVMGIQYSFLQPLEQSLSFESFFDDETMSLHIKEDTVPRAKKGKPGNWKFVNLSNKPMLSVDVKRIANEIINGVRFIKGSFIEIERKGSLIIQLGNYRVVITRPPLSDGWEITITRPVVRKRLEDYGLDERLIKRLEERAEGIIIAGAPGMGKTTFAQALSEYYMRLGKIVKTIESPRDMHLPPEITQYSKNYAEIGELHDILLLSRPDYTVYDEMRNDEDFKLYIDLRLAGIGMVGVVHATSPIDAIHRFVNRVDIGTIPNILDTIIFINSGNVSKVYTLEITVKVPAGLKEADLARPVVEIKDLVTGNTEYEIYVFGEQTMIVPVNRGITLNNMEFKISKIVNNIIPKATVKYEDGEYVIVIPKEEIGKYNRKLVQRLKRLEKKNNIKIKIKLSD
MASQAASKAVTFAYNGTIASTLRKFAWSNLWGGREYGLQFHDTYFEPAPEVTEALRRLNLQEPHVFDQRKIRLSRAHTLALHGEKLPKAEWTQWDQESWYLKPYLDEIEAEKKARAETSGLIPPYQMKQH
MGSDKIHHHHHHVSVPTQHHLSAERLDQSAQFARITSTVEAPVLSLWLPDPQQAVPSACGRAVAGHDGPSEGAGGQRQGGESGQLCRAHLRLQPGPVLAGEAEAPPTRPQFLLVVATHLQRSFTREVKLHGRCPRRVRRPFHLITQIDNQVRGCRPDLTQHRREREGVPVHVADDCHSHPSSLAQTGAAPPANMRPMSILPDWRIRELAQAGMIEPFEDRLIRTAENGHVISYGLSSFGYDLRCADEWKVFTNVHGALVDPKNFDERSFVDLQANAIIIPPNSFVLARSLEYLRIPENVMVVALGKSTYARCGIVANVTPLEPGWEGHVTLEFSNTTPLPAKMYAFEGCVQLLFFEGERPAVTYRDRGGKYQKQRGVTLPRL
MGHHHHHHSHMAVASTSTSDGMLTLDLIQEEDPSPEEPTSCAESFRVDLDKSVAQLAGSRRRADSDRIQPSADRASSLSRPWEKTDKGATYTPQAPKKLTPTEKGRCASLEEILSQRDAASARTLQLRAEEPPTPALPNPGQLSRIQDLVARKLEETQELLAEVQGLGDGKRKAKDPPRSPPDSESEQLLLETERLLGEASSNWSQAKRVLQEVRELRDLYRQMDLQTPDSHLRQTTPHSQYRKSLM
MSLESLFQHIIFTEHQAEESRRLMREVRSEITRCREKIKKATEELNEEKIKLESKVQQFFEKSFFLQLLKAHENALEKQYSEITNHRNMLLQTFEAIKKQMIEEEDKFIKEITDFNNDYEITKKRELLMKENVKIEISDLENQANMLKSEMKSMEHDSSQLNELQKQKSELIQELFTLQRKLKVFEDEENESICTTKYLEAEKIKISEKPQNDTECLRLKKELELYKEDDMESVYEALQTEIEFLELTLAQKDLQESK
MVLASSSAFALKDDVNQPINIVSDNQSLDMEKSVVTFTDNVVITQGSIVIKANKVVITRPAEKSGKKETVEAFGTPVTFHQQLDNGKPVDGKANKVHYDLGNEFLTLTNNAELKQLDSKINGSVITYDVKKQQLKANGNGKSRVTTVLIPSQLQQAKGK
MAHHHHHHMSEGGRRRKVYGFKAERQAFFSKHVRQTFLEEGRKKKDEERARMEAYRKLCEEEGIVSKRLEDYDRTRKAAKEHLSSTLEQIDYDQSLTNNEKKKRKYNLKRKFAATTVNDLIDKQQKHYSAVSGMEEVQRRQQQEREEKQKARQEREREKQSRVQARKSRNALFAKRTKKGQPAMSSRVESLLQKISWQ
MSSSSSSRIHNGEDVYEKAEEYWSRASQDVNGMLGGFEALHAPDISASKRFIEGLKKKNLFGYFDYALDCGAGIGRVTKHLLMPFFSKVDMEDVVEELITKSDQYIGKHPRIGDKFVEGLQTFAPPERRYDLIWIQWVSGHLVDEDLVDFFKRCAKGLKPGGCIVLKDNVTNHEKRLFDDDDHSWTRTEPELLKAFADSQLDMVSKALQTGFPKEIYPVKMYALKPQHTGFTNN
MGSDKIHHHHHHMDTQRGSLRGKAHKARLKMTPNGRRQLLLERGAAFSKNRTPGLKHVDRHTIVDSDGLSIHTYMVGHAENATATVVFIHGFTLAAEVYYMQVDYLQTFYPNIKSVLIDARGHGATGQIRPELCTIEGTANDVLAAIHEHAPTGPLILVGHSLGGLTALNLVKRADHSLRKRIVGMVLVATSIESLSTQGLPQVLASPLADNIKNAVEAAPNDAQKFRQYATTFLAPTLATAVFQRDTNDEVIDFHAAMIHETPLDTFVGFFDDLQEHDELDAAPALEGLKGYVLAGELDDVTPISQADRICEVWPGARLQIAEGAGHMLPLEAPGILNNAIGNILDGLG
SLEEKVRPCIDLIDSLRALGVEQDLALPAIAVIGDQSSGKSSVLEALSGVALPRGSGIVTRCPLVLKLKKLVNEDKWRGKVSYQDYEIEISDASEVEKEINKAQNAIAGEGMGISHELITLEISSRDVPDLTLIDLPGITRVAVGNQPADIGYKIKTLIKKYIQRQETISLVVVPSNVDIATTEALSMAQEVDPEGDRTIGILTKPDLVDKGTEDKVVDVVRNLVFHLKKGYMIVKCRGQQEIQDQLSLSEALQREKIFFENHPYFRDLLEEGKATVPCLAEKLTSELITHICKSLPLLENQIKETHQRITEELQKYGVDIPEDENEKMFFLIDKINAFNQDITALMQGEETVGEEDIRLFTRLRHEFHKWSTIIENNFQEGHKILSRKIQKFENQYRGRELPGFVNYRTFETIVKQQIKALEEPAVDMLHTVTDMVRLAFTDVSIKNFEEFFNLHRTAKSKIEDIRAEQEREGEKLIRLHFQMEQIVYCQDQVYRGALQKVREKELEEEKKKKSWDFGAFQSSSATDSSMEEIFQHLMAYHQEASKRISSHIPLIIQFFMLQTYGQQLQKAMLQLLQDKDTYSWLLKERSDTSDKRKFLKERLARLTQARRRLAQFPGEG
